Reference: PMC5376975, “Structural studies of RFCC tf18 reveal a novel chromatin recruitment role for Dcc1”

Biological target: T1, Dcc1 C-terminus WT (Saccharomyces cerevisiae, UniProt P25559 90-380)
T1 sequence: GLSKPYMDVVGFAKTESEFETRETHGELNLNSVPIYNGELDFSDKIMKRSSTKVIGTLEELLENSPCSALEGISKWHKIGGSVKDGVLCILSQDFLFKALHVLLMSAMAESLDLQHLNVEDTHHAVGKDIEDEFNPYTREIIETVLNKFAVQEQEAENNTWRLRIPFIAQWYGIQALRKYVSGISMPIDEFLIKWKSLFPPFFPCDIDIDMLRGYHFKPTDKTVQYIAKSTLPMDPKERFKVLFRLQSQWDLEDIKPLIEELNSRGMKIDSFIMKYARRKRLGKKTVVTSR
Assay: EMSA; 1 uM DNA; EMSA, 6% native gel in 0.5x TBE, 4 C, DNA 1 uM unless stated; binding buffer, salt and pH not stated (protein storage 10 mM Tris pH 7.5, 150 mM NaCl, 0.5 mM TCEP for the complex)
Settings: protein: recombinant, tags: expressed by the complex protocol

B1: 25-mer oligo d(T) (ssDNA)
DNA: TTTTTTTTTTTTTTTTTTTTTTTTT
binding result (label: 5' 6-FAM): binds

B2: 22-mer dsDNA (dsDNA)
DNA 1: TCTCCACAGGAAACGGAGGGGT
DNA 2: ACCCCTCCGTTTCCTGTGGAGA
binding result (label: 5' 6-FAM on sense strand): binds
